Experimental findings from patent publication US20030148956A1 (PROCTER AND GAMBLE, published 2003) are described below.

Ends that are not written are not given here.

Sequences and labels used below:
T1: CRF2R
T1 sequence (Q13324 whole entry, species assumed, looked up): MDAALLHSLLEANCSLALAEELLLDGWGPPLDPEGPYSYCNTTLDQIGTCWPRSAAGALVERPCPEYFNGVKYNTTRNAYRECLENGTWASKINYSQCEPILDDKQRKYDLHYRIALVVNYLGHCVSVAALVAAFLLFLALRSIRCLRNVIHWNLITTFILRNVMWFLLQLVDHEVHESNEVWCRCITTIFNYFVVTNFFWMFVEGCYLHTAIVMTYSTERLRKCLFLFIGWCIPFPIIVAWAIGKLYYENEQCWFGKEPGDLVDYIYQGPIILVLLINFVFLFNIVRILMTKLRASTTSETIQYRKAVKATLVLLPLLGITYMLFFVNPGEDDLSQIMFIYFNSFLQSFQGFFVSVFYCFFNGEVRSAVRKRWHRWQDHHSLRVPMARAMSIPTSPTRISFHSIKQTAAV

One test has as its target CRF1R. Description: cell-based or functional assay.
Regarding IVLSLDVPIGLLQILLEQARQRAAREQATTNARILARV-NH2 [SEQ ID NO 114], the “CRF1R EC50” value was more than 100 nM and the “CRF1R Emax” value came to 6%.
Turning to IVLSLDVPIGLLQILLEQTKANAAREQATTVARILARV-NH2 [SEQ ID NO 116], the “CRF1R EC50” value is 100 nM and the “CRF1R Emax” value was determined as 4.8%.
On to ZGPPISIDLPFQLLRKMIEIEKQEKEKQQATNNRLLLATV (C-terminal amide) [SEQ ID NO 12], for which the “CRF1R EC50” value is 928 nM and the “CRF1R Emax” value was determined as 73%.
The matching figures for ZGPPISIDLPFQLLRKMIEIEKQEKEKQQATTNRLLLDTI (C-terminal amide) [SEQ ID NO 13]: 97.7 nM and 69%.
As to ZGPPISIDLPFQLLRKMIEIEKQEKEKQQATNNRLLLDTI (C-terminal amide) [SEQ ID NO 14], the “CRF1R EC50” value was determined as 109 nM and the “CRF1R Emax” value is 92%.
Consider IVLSLDVPIGLLQILLEQTKARAAREQATTNARILARV-NH2 [SEQ ID NO 129], for which the “CRF1R EC50” value was more than 100 nM.
Turning to IVLSLDVPIGLLQILLEQRRAAREQATTNARILARV-NH2 [SEQ ID NO 133], the “CRF1R EC50” value was more than 100 nM and the “CRF1R Emax” value was 4%.
As for IVLSLDVPIGLLQILLEQERQEAAREQATTNARILARV-NH2 [SEQ ID NO 118], the “CRF1R EC50” value is more than 100 nM and the “CRF1R Emax” value came to 5%.
For IVLSLDVPIGLLQILLEQERARAAREQATTNARILARV-NH2 [SEQ ID NO 119], the “CRF1R EC50” value is more than 100 nM and the “CRF1R Emax” value came out at 3%.
For the molecule IVLSLDVPIGLLQILLEQAKADAAREQATTNARILARV-NH2 [SEQ ID NO 131], the “CRF1R EC50” value was more than 100 nM and the “CRF1R Emax” value was 8%.
For IVLSLDVPIGLLQILLEQARAAAREQATTNARILARV-NH2 [SEQ ID NO 141], in that order: more than 100 nM and 7%.
Take IVLSLDVPIGLLQILLEQAKARAAREQATTNARILARV-NH2 [SEQ ID NO 127]: the “CRF1R EC50” value is more than 100 nM.
For the molecule IVLSLDVPIGLLQILLEQARADAAREQATTNARILARV-NH2 [SEQ ID NO 130], the “CRF1R EC50” value is more than 100 nM and the “CRF1R Emax” value is 9%.
For the molecule IVLSLDVPIGLLQILLEQEKQEAAREQATTNARILARV-NH2 [SEQ ID NO 125], the “CRF1R EC50” value is more than 100 nM and the “CRF1R Emax” value was found to be 9%.
Regarding IVLSLDVPIGLLQILLEQEKQRAAREQATTNARILARV-NH2 [SEQ ID NO 115], the “CRF1R EC50” value was more than 100 nM and the “CRF1R Emax” value turned out to be 7%.
IVLSLDVPIGLLQILLEQTKARAAREQATTNARILARV-NH2 [SEQ ID NO 117]: the “CRF1R EC50” value came to 100 nM.
Take IVLSLDVPIGLLQILLEQAKQEAAREQATTNARILARV-NH2 [SEQ ID NO 124]: the “CRF1R EC50” value is more than 100 nM and the “CRF1R Emax” value came to 6%.
Turning to IVLSLDVPIGLLQILLEQAAAAREQATTNARILARV-NH2 [SEQ ID NO 134], the “CRF1R EC50” value is more than 100 nM and the “CRF1R Emax” value was 7%.
For IVLSLDVPIGLLQILLEQAAREQATTNARILARV-NH2 [SEQ ID NO 138], in that order: more than 100 nM and 5%.
As for IVLSLDVPIGLLQILLEQARQEAAREQATTNARILARV-NH2 [SEQ ID NO 123], the “CRF1R EC50” value is more than 1000 nM and the “CRF1R Emax” value was 9.6%.
Regarding ZGPPISIDLSLELLRKMIEIEKQEKEKQQATTNARILARV (C-terminal amide) [SEQ ID NO 142], the “CRF1R EC50” value was determined as 43.5 nM and the “CRF1R Emax” value is 85.3%.
Regarding ZGPPISIDLPLELLRKMIEIEKQEKEKQQATTNARILARV (C-terminal amide) [SEQ ID NO 143], the “CRF1R EC50” value was 232 nM and the “CRF1R Emax” value came out at 100%.
Turning to IVLSLDVPIGLLQILLEQRARAAREQATTNARILARV-NH2 [SEQ ID NO 137], the “CRF1R EC50” value was more than 100 nM and the “CRF1R Emax” value amounted to 4%.
As for IVLSLDVPIGLLQILLEQAARAAREQATTNARILARV-NH2 [SEQ ID NO 135], the “CRF1R EC50” value was more than 100 nM and the “CRF1R Emax” value amounted to 6%.
For IVLSLDVPIGLLQILLEQTRARAAREQATTNARILARV-NH2 [SEQ ID NO 128], in that order: more than 100 nM and 8%.
Turning to IVLSLDVPIGLLQILLEQTRADAAREQATTNARILARV-NH2 [SEQ ID NO 126], the “CRF1R EC50” value is more than 100 nM and the “CRF1R Emax” value was 7%.
Consider IVLSLDVPIGLLQILLEQAAAREQATTNARILARV-NH2 [SEQ ID NO 139], for which the “CRF1R EC50” value was more than 100 nM and the “CRF1R Emax” value stood at 4%.
The matching figures for IVLSLEVPIGLLQILLEQARARAAREQATTNARILARV-NH2 [SEQ ID NO 120]: 100 nM and 7%.
In the case of IVLSLDVPIGLLQILLEQRAAREQATTNARILARV-NH2 [SEQ ID NO 136], the “CRF1R EC50” value was more than 100 nM and the “CRF1R Emax” value came out at 8%.
IVLSLDVPIGLLQILLEQEKEKKRKETNARILARV-NH2 [SEQ ID NO 132]: the “CRF1R EC50” value is more than 100 nM and the “CRF1R Emax” value is 8%.
For the molecule IVLSLDVPIGLLQILLEQARAEAAREQATTNARILARV-NH2 [SEQ ID NO 122], the “CRF1R EC50” value turned out to be 1000 nM and the “CRF1R Emax” value stood at 10.7%.

The target of the next test is T1, CRF2R. Description: cell-based or functional assay.
With IVLSLDVPIGLLQILLEQARQRAAREQATTNARILARV-NH2 [SEQ ID NO 114], the “CRF2R EC50” value came to 3.42 nM and the “CRF2R Emax” value turned out to be 100%.
In the case of IVLSLDVPIGLLQILLEQTKANAAREQATTVARILARV-NH2 [SEQ ID NO 116], the “CRF2R EC50” value was determined as 100 nM and the “CRF2R Emax” value was determined as 26.4%.
Take ZGPPISIDLPFQLLRKMIEIEKQEKEKQQATNNRLLLATV (C-terminal amide) [SEQ ID NO 12]: the “CRF2R EC50” value was 9.72 nM and the “CRF2R Emax” value was 91%.
For ZGPPISIDLPFQLLRKMIEIEKQEKEKQQATTNRLLLDTI (C-terminal amide) [SEQ ID NO 13], in that order: 3.88 nM and 79%.
For ZGPPISIDLPFQLLRKMIEIEKQEKEKQQATNNRLLLDTI (C-terminal amide) [SEQ ID NO 14], in that order: 6.33 nM and 90%.
IVLSLDVPIGLLQILLEQTKARAAREQATTNARILARV-NH2 [SEQ ID NO 129]: the “CRF2R EC50” value was 3.83 nM.
For IVLSLDVPIGLLQILLEQRRAAREQATTNARILARV-NH2 [SEQ ID NO 133], the “CRF2R EC50” value turned out to be 12.2 nM and the “CRF2R Emax” value was 88%.
Take IVLSLDVPIGLLQILLEQERQEAAREQATTNARILARV-NH2 [SEQ ID NO 118]: the “CRF2R EC50” value turned out to be 14.6 nM and the “CRF2R Emax” value was found to be 100%.
Regarding IVLSLDVPIGLLQILLEQERARAAREQATTNARILARV-NH2 [SEQ ID NO 119], the “CRF2R EC50” value was found to be 3.57 nM and the “CRF2R Emax” value turned out to be 95%.
As for IVLSLDVPIGLLQILLEQAKADAAREQATTNARILARV-NH2 [SEQ ID NO 131], the “CRF2R EC50” value turned out to be 5.25 nM and the “CRF2R Emax” value was 91%.
IVLSLDVPIGLLQILLEQARAAAREQATTNARILARV-NH2 [SEQ ID NO 141]: the “CRF2R EC50” value was more than 100 nM and the “CRF2R Emax” value turned out to be 29%.
IVLSLDVPIGLLQILLEQAKARAAREQATTNARILARV-NH2 [SEQ ID NO 127]: the “CRF2R EC50” value came out at 7.79 nM.
In the case of IVLSLDVPIGLLQILLEQARADAAREQATTNARILARV-NH2 [SEQ ID NO 130], the “CRF2R EC50” value amounted to 8.57 nM and the “CRF2R Emax” value was 92%.
With IVLSLDVPIGLLQILLEQEKQEAAREQATTNARILARV-NH2 [SEQ ID NO 125], the “CRF2R EC50” value came to 4.47 nM and the “CRF2R Emax” value was 99%.
For IVLSLDVPIGLLQILLEQEKQRAAREQATTNARILARV-NH2 [SEQ ID NO 115], the “CRF2R EC50” value came to 13.6 nM and the “CRF2R Emax” value was 98%.
Consider IVLSLDVPIGLLQILLEQTKARAAREQATTNARILARV-NH2 [SEQ ID NO 117], for which the “CRF2R EC50” value came to 9.41 nM.
IVLSLDVPIGLLQILLEQAKQEAAREQATTNARILARV-NH2 [SEQ ID NO 124]: the “CRF2R EC50” value is 3.49 nM and the “CRF2R Emax” value was 94%.
IVLSLDVPIGLLQILLEQAAAAREQATTNARILARV-NH2 [SEQ ID NO 134]: the “CRF2R EC50” value was more than 100 nM and the “CRF2R Emax” value came out at 19%.
On to IVLSLDVPIGLLQILLEQAAREQATTNARILARV-NH2 [SEQ ID NO 138], for which the “CRF2R EC50” value was found to be 59 nM and the “CRF2R Emax” value was found to be 46%.
On to IVLSLDVPIGLLQILLEQARQEAAREQATTNARILARV-NH2 [SEQ ID NO 123], for which the “CRF2R EC50” value stood at 3.49 nM and the “CRF2R Emax” value amounted to 93.8%.
The matching figures for ZGPPISIDLSLELLRKMIEIEKQEKEKQQATTNARILARV (C-terminal amide) [SEQ ID NO 142]: 9.08 nM and 77%.
In the case of ZGPPISIDLPLELLRKMIEIEKQEKEKQQATTNARILARV (C-terminal amide) [SEQ ID NO 143], the “CRF2R EC50” value amounted to 11.1 nM and the “CRF2R Emax” value was found to be 85.5%.
For IVLSLDVPIGLLQILLEQRARAAREQATTNARILARV-NH2 [SEQ ID NO 137], in that order: 36.9 nM and 100%.
IVLSLDVPIGLLQILLEQAARAAREQATTNARILARV-NH2 [SEQ ID NO 135]: the “CRF2R EC50” value is more than 100 nM and the “CRF2R Emax” value was 76%.
For IVLSLDVPIGLLQILLEQTRARAAREQATTNARILARV-NH2 [SEQ ID NO 128], in that order: 2.85 nM and 98%.
Turning to IVLSLDVPIGLLQILLEQTRADAAREQATTNARILARV-NH2 [SEQ ID NO 126], the “CRF2R EC50” value is 13 nM and the “CRF2R Emax” value turned out to be 91%.
For IVLSLDVPIGLLQILLEQAAAREQATTNARILARV-NH2 [SEQ ID NO 139], the “CRF2R EC50” value turned out to be 42.6 nM and the “CRF2R Emax” value came to 60%.
Consider IVLSLEVPIGLLQILLEQARARAAREQATTNARILARV-NH2 [SEQ ID NO 120], for which the “CRF2R EC50” value is 69.9 nM and the “CRF2R Emax” value was found to be 100%.
The matching figures for IVLSLDVPIGLLQILLEQRAAREQATTNARILARV-NH2 [SEQ ID NO 136]: 23.4 nM and 68%.
Take IVLSLDVPIGLLQILLEQEKEKKRKETNARILARV-NH2 [SEQ ID NO 132]: the “CRF2R EC50” value came to 7.53 nM and the “CRF2R Emax” value was determined as 88%.
For IVLSLDVPIGLLQILLEQARAEAAREQATTNARILARV-NH2 [SEQ ID NO 122], in that order: 3.31 nM and 97%.
